According to article PMC2187783:

Tests used:
[1] = biological target: PR97 chimeric class II beta chain (beta1 domain of DP, beta2 domain of DR) (human)
[2] = biological target: RP97 chimeric class II beta chain (beta1 domain of DR, beta2 domain of DP) (human)

Substance | Table II, DPa Percent: percentage of cells binding the mAb SG465 [1] | Table II, DPa Percent: percentage of cells binding the mAb SG465 [2] | Table II, DRa Percent: percentage of cells binding the mAb SG465 [1] | Table II, DRa Percent: percentage of cells binding the mAb SG465 [2]
HLA-DP alpha chain (from UniProt P20036 29-260) (natural protein) | 22% | 0% | – | –
HLA-DR alpha chain (from UniProt P01903 26-254) (natural protein) | – | – | 0% | 54%
